This assay concerns the target protein A-derived Z-domain of the mAbSelect SuRe resin. Briefly: protein A (Z-domain) affinity chromatography, pH-gradient elution.

human IgG1 T307P, L309Q (antibody) displayed an elution pH from the protein A (Z-domain) column of 4.48 pH.

Source of the values: publication PMC5686111.
